Results reported in patent publication US20100310509A1 (published 2010).

T1: soluble human LIFR (leukemia inhibitory factor receptor) (human, UniProt P42702 45-833)
T1 construct: extracellular domain; Bought; also called soluble LIFR
T1 sequence (looked up): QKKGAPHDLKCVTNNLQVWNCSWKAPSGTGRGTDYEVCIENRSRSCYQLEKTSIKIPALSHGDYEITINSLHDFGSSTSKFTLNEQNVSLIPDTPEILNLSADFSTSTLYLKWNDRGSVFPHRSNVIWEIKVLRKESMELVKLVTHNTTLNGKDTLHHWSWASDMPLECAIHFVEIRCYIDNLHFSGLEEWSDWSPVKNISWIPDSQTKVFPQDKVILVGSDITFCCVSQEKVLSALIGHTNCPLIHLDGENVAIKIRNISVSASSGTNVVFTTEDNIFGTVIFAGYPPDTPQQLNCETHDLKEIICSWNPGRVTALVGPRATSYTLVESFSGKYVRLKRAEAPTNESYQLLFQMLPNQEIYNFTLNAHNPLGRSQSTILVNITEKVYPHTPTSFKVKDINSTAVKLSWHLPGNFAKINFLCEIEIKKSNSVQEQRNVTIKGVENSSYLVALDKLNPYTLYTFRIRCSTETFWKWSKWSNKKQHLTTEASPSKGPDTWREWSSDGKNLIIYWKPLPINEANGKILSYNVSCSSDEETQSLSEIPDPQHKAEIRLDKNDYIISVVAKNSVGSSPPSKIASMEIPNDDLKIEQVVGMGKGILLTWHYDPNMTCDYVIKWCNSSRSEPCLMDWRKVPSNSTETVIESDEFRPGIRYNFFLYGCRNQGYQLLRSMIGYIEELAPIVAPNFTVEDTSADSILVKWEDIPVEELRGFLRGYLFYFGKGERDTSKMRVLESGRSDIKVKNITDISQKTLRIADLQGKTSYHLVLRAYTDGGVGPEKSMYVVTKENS


Columns and labels:
[1] = molecular target: T1, soluble human LIFR (leukemia inhibitory …); assay: ELISA, apparent KD (KD,App), cytokine coated, soluble LIFR titrated (direct)
Description: For direct interaction studies, cytokines (LIF, OSM-WT, OSM-M1 or OSM-M2) were immobilized on the 96 well ELISA plate by incubating the wells with 200 μl of 5 nM cytokine solution in PBS, pH 7.4 overnight at 4° C. The wells were then blocked with blocking buffer (4% BSA in PBS) for 1 hour at room temperature. After washing with 250 μl of washing buffer (0.05% Tween-20 in PBS) 3 times, the cytokines were treated with a series of concentrations of soluble human LIFR (Catalog #249-LR-050/CF, R&D Systems, Minneapolis, Minn.) or OSMR (Catalog #4389-OR-050, R&D Systems, Minneapolis, Minn.) in 150 μl of blocking buffer for 2 hours. The wells were then incubated with 150 μl of polyclonal anti-hLIFR (Catalog #AF249-NA, R&D Systems, Minneapolis, Minn.) or anti-hOSMR (Catalog #AF662, R&D Systems, Minneapolis, Minn.) in blocking buffer for 1 hour followed by incubation with 150 μl of HRP conjugated […] antibody (GE Healthcare, Uppsala, Sweden) in blocking buffer for 30 minutes. The wells were then washed 3 times with washing buffer and treated with 100 μl of chromogenic Slow-TMB® HRP substrate (Catalog #34024, Thermo Scientific Fisher, Rockford, Ill.) for 15 minutes. The reaction was then stopped by adding 100 μl of 2M H₂SO₄ and the absorbance of each well at 450 nm was read immediately using a UV detector (iMARK® Microplate Reader, Biorad, Hercules, Calif.). For interactions of higher order, soluble human gp130 (Catalog #671-GP-100, R&D Systems, Minneapolis, Minn.) was immobilized on 96 well ELISA microplates by incubating the wells with 200 μl of 1 nM gp130 solution (in PBS, pH 7.4) overnight at 4° C. The wells were then blocked with 150 μl of blocking buffer (4% BSA in PBS) for 1 hour at room temperature. After washing with 250 μl of washing buffer 3 times, gp130 was treated with saturating amounts of the cytokines (500 nM hLIF, 200 nM OSM-WT, 200 nM OSM-M1 or 200 nM OSM-M2) in a volume of 150 μl of blocking buffer for a period of 2 hours. The cytokine solution was discarded and a series of concentrations of soluble human LIFR or OSMR in a final volume of 150 μl blocking buffer were then added to the wells and the incubation was continued for another 1 hour. After washing with 250 μl of washing buffer 3 times, the wells were then incubated with 150 μl of polyclonal anti-hLIFR or anti-hOSMR in blocking buffer for 1 hour.

[2] = molecular target: T1, soluble human LIFR (leukemia inhibitory …); assay: SPR (SensiQ), cytokine immobilised, soluble LIFR as analyte, 1:1 model
Description: Surface Plasmon Resonance (SPR): Kinetic parameters of the interactions between receptor domains and the cytokines LIF, OSM-WT, OSM-M1 or OSM-M2 were analyzed by SPR using the SENSIQ® system (ICX Technologies, Oklahoma City, Okla.) as described by the manufacturer protocol. Briefly, a carboxyl sensor with two channels was installed in SENSIQ® and allowed to thermally equilibrate for about 15 minutes. The channels were initially cleaned with a 3 minute injection of 0.1 M HCl. An activation solution of 2 mM 1-Ethyl-3-[3-dimethylaminopropyl]carbodiimide hydrochloride (EDC) and 0.5 mM N-hydroxysulfo succinimide (NHS) was prepared in deionized water immediately before injection. Activation solution was injected over both channels for approximately 3 minutes followed by a 10 minute injection of 50 μg/mL cytokine (LIF, OSM-WT, OSM-M1 or OSM-M2) in 10 mM acetate buffer, pH 5.0, over channel 1. […] Unreacted NHS esters were capped with a 3 minute injection of 1 M ethanolamine, pH 8.0, over both channels. […] A concentration series of soluble LIFR (# 249-LR-050/CF, R&D Systems, Minneapolis, Minn.), soluble OSMR (# 4389-OR-50, R&D Systems, Minneapolis, Minn.) or soluble gp130 (# 228-GP-050/CF, R&D Systems, Minneapolis, Minn.) in running buffer (10 mM HEPES pH 7.4, 150 mM NaCl, 3.4 mM EDTA, 0.005% Tween-20) were injected over both channels at a flow rate of 25 μl/min. Following a dissociation period of 3 minutes, the surfaces were regenerated by injecting 10 mM NaOH for 30 seconds. Rate constants for association (kₐ) and dissociation (kd) rates were derived by global analysis of the response curves fit to a 1:1 kinetic model (Equations 1 and 2) using QDat software (BioLogic Software, Ltd. Knoxville Tenn. and Nomadics, Inc. Stillwater, Okla.) using 1:1 stoichiometry.
Reducing the size of the BC loop improves OSM's affinity towards LIFR and OSMR. […] To directly measure the binding kinetics of these ligand-receptor interactions, surface plasmon resonance (SPR) was used.

| Binder | Kd [1] [nM] | Kd [2] [nM] | koff [2] [s⁻¹] | kon [2] [M⁻¹ s⁻¹] |
| --- | --- | --- | --- | --- |
| OSM-M1 (OSM with BC loop truncated from 12 to 7 amino acids) (ligand, Made from the 'AGA' modified OSM template; lacks the thrombin site; not shown: N-terminal FLAG tag left after thrombin removal of GST) AAIGSCSKEYRVLLGQLQKQTDLMQDTSRLLDPYIRIQGLDVPKLREHCRERPGAFPSEETLRGLGRRGFLQTLNATLGCVLHRLADLEQRLGAPSGLNIEDLEKLQMARPNILGLRNNIYCMAQLLDNSDTAEPTKAGAGASQPPTPTPASDAFQRKLEGCRFLHGYHRFMHSVGRVFSKWGESPN | 10.1 | 7.62 | 0.00252 | 331000 |
| OSM-WT ('AGA' modified human Oncostatin M, referred to as wild-type OSM) (ligand, also called hOSM with AGA modification; not shown: N-terminal FLAG tag left after thrombin removal of GST) AAIGSCSKEYRVLLGQLQKQTDLMQDTSRLLDPYIRIQGLDVPKLREHCRERPGAFPSEETLRGLGRRGFLQTLNATLGCVLHRLADLEQRLPKAQDLERSGLNIEDLEKLQMARPNILGLRNNIYCMAQLLDNSDTAEPTKAGAGASQPPTPTPASDAFQRKLEGCRFLHGYHRFMHSVGRVFSKWGESPN | 60 | 43.8 | 0.004 | 91000 |

Binders with a lower Kd [1], results first:

| Kd [1] [nM] | Kd [2] [nM] | koff [2] [s⁻¹] | kon [2] [M⁻¹ s⁻¹] | Binder |
| --- | --- | --- | --- | --- |
| 8.75 | 2.74 | 0.00356 | 1.3e+06 | OSM-M2 (OSM with BC loop truncated from 12 to 4 amino acids) (ligand, Made from the 'AGA' modified OSM template; lacks the thrombin site; not shown: N-terminal FLAG tag left after thrombin removal of GST) AAIGSCSKEYRVLLGQLQKQTDLMQDTSRLLDPYIRIQGLDVPKLREHCRERPGAFPSEETLRGLGRRGFLQTLNATLGCVLHRLADLEQRLGGGNIEDLEKLQMARPNILGLRNNIYCMAQLLDNSDTAEPTKAGAGASQPPTPTPASDAFQRKLEGCRFLHGYHRFMHSVGRVFSKWGESPN |
| 8.58 | 3.1 | 0.0023 | 740000 | human leukemia inhibitory factor (LIF) (ligand, Purified recombinant protein; also called hLIF) not shown |
